Substrate in series [1]: C=C(OP(=O)(O)O)C(=O)O
As to the kind of experiment: EPSPS substrate saturation kinetics, 868-H6. It is filed as biochemical, Zea mays. The conditions noted are these: other: PEP varied; pH 7.0. On the procedure: (§1) EPSPS activity was determined by quantifying the phosphate generated from the EPSPS reaction. Release of inorganic phosphate was coupled to reaction with 2-amino-6-mercapto-7-methylpurine ribonucleoside, catalyzed by purine-nucleoside phosphorylase (M R Webb, Proc. Natl. Acad. Sci. 89:4884-4887, 1992). The absorbance change that occurs was monitored at 360 nm, where the extinction is 11,200 M^−1 cm^−1, with a Spectramax plate reader (Molecular Devices). To determine kinetic parameters, the varied substrate was present at seven concentrations (the eighth being the blank, containing no substrate) ranging from 4 to 400 uM and the unvaried substrate present at saturation. Six microliters of 50-fold concentrated stock solutions of the varied substrate were placed in the wells of the 96-well assay plate and reactions were started with the addition of a mixture containing 25 mM Hepes, pH 7, 100 mM KCl, 0.3 mM 2-amino-6-mercapto-7-methylpurine ribonucleosde, 1 uM (1 unit/ml) purine-nucleoside phosphorylase (Sigma N8264) and 200 uM of the non-varied substrate. Reactions were monitored with a Spectramax plate reader. The Michaelis-Menten kinetics protocol of the Spectramax software was customized for the substrate concentrations used. The software returns values of KM and Vmax using the Lineweaver-Burke transformation of the Michaelis-Menten equation. To determine kcat, Vmax (uM/min) was divided by the enzyme concentration (uM). […] KI was then calculated from the following form of the Michaelis-Menten equation for competitive inhibition: KI=KM[I]/(KM app−KM) KM approximates the dissociation constant of the enzyme-substrate complex while kcat is the rate of conversion of substrate to product when the substrate concentration is saturating. kcat/KM is a widely accepted parameter for catalytic efficiency when substrate concentration is low (˜KM). […] The parameter kcat/KM×KI is used to quantify both catalytic efficiency and insensitivity and thus the overall fitness of the enzyme.
(§2) From the functional diversity identified for each, combinatorial libraries were constructed and screened. […]

Substrate in series [2]: C=C(OP(=O)(O)O)C(=O)O
Briefly: EPSPS substrate saturation kinetics, sorghum H6. The class given is biochemical, Sorghum halepense. The conditions noted are these: other: PEP varied; pH 7.0. On the procedure:
as §1, with “Six microliters of 50-fold concentrated stock solutions of the varied substrate were placed in the wells of the 96-well assay plate and reactions were started with the addition of a mixture containing 25 mM Hepes, pH 7, 100 mM KCl, 0.3 mM 2-amino-6-mercapto-7-methylpurine ribonucleosde, 1 uM (1 unit/ml) purine-nucleoside phosphorylase (Sigma N8264) and 200 uM of the non-varied substrate.” left out, “reader.” for “reader. The Michaelis-Menten kinetics protocol of the Spectramax software was customized for the substrate concentrations used. The software returns values of KM and Vmax using the Lineweaver-Burke transformation of the Michaelis-Menten equation. To determine kcat, Vmax (uM/min) was divided by the enzyme concentration (uM).”
(§3) Native EPSPS amino acid sequences of rice (Oryza sativa) (SEQ ID NO:7), sorghum (Sorghum halepense) (SEQ ID NO:8), and sunflower (Helianthus annus) (SEQ ID NO:9) including the chloroplast transit peptide sequences were assembled and analyzed for mapping the corresponding amino acid mutations from the maize 868-H6. […]
(§4) ChloroP Prediction Server (Emanuelsson, O. et al. 1999. Protein Sci. 8(5):978-84) was used to approximate the amino terminus of the mature EPSPS proteins. […] The synthetic genes were cloned into a plasmid vector and expressed, purified and analyzed as described in Example 1.

Substrate in series [3]: C=C(OP(=O)(O)O)C(=O)O
Briefly: EPSPS substrate saturation kinetics, 771-C2. The class given is biochemical, Zea mays. The note with it: other: PEP varied; pH 7.0. On the procedure:
as §1, §2

Substrate in series [4]: C=C(OP(=O)(O)O)C(=O)O
Briefly: EPSPS substrate saturation kinetics, 123-C1. It is filed as biochemical, Zea mays. The note with it: other: PEP varied; pH 7.0. On the procedure: as §1, with “enzyme. […]” for “enzyme.”

Substrate in series [5]: C=C(OP(=O)(O)O)C(=O)O
Briefly: EPSPS substrate saturation kinetics, native sorghum. The conditions noted are these: other: PEP varied; pH 7.0. The class given is biochemical, Sorghum halepense. On the procedure:
as §1, with “Six microliters of 50-fold concentrated stock solutions of the varied substrate were placed in the wells of the 96-well assay plate and reactions were started with the addition of a mixture containing 25 mM Hepes, pH 7, 100 mM KCl, 0.3 mM 2-amino-6-mercapto-7-methylpurine ribonucleosde, 1 uM (1 unit/ml) purine-nucleoside phosphorylase (Sigma N8264) and 200 uM of the non-varied substrate.” left out, “reader.” for “reader. The Michaelis-Menten kinetics protocol of the Spectramax software was customized for the substrate concentrations used. The software returns values of KM and Vmax using the Lineweaver-Burke transformation of the Michaelis-Menten equation. To determine kcat, Vmax (uM/min) was divided by the enzyme concentration (uM).”
as §3, §4

Substrate in series [6]: C=C(OP(=O)(O)O)C(=O)O
As to the kind of experiment: Substrate saturation kinetic analysis with glyphosate, Zm-A189T. It is filed as biochemical, Zea mays. The conditions noted are these: other: substrate saturation.

Substrate in series [7]: C=C(OP(=O)(O)O)C(=O)O
Briefly: Substrate saturation kinetic analysis with glyphosate, Zm-T103A. The conditions noted are these: other: substrate saturation. The class given is biochemical, Zea mays.

Substrate in series [8]: C=C(OP(=O)(O)O)C(=O)O
As to the kind of experiment: EPSPS substrate saturation kinetics, rice H6. It is filed as biochemical, Oryza sativa. The conditions noted are these: other: PEP varied; pH 7.0. Here is the method:
as §1, with “Six microliters of 50-fold concentrated stock solutions of the varied substrate were placed in the wells of the 96-well assay plate and reactions were started with the addition of a mixture containing 25 mM Hepes, pH 7, 100 mM KCl, 0.3 mM 2-amino-6-mercapto-7-methylpurine ribonucleosde, 1 uM (1 unit/ml) purine-nucleoside phosphorylase (Sigma N8264) and 200 uM of the non-varied substrate.” left out, “reader.” for “reader. The Michaelis-Menten kinetics protocol of the Spectramax software was customized for the substrate concentrations used. The software returns values of KM and Vmax using the Lineweaver-Burke transformation of the Michaelis-Menten equation. To determine kcat, Vmax (uM/min) was divided by the enzyme concentration (uM).”
as §3, §4

Substrate in series [9]: C=C(OP(=O)(O)O)C(=O)O
As to the kind of experiment: EPSPS substrate saturation kinetics, sunflower H6. The class given is biochemical. The note with it: other: PEP varied; pH 7.0. Here is the method: as §1, with “Six microliters of 50-fold concentrated stock solutions of the varied substrate were placed in the wells of the 96-well assay plate and reactions were started with the addition of a mixture containing 25 mM Hepes, pH 7, 100 mM KCl, 0.3 mM 2-amino-6-mercapto-7-methylpurine ribonucleosde, 1 uM (1 unit/ml) purine-nucleoside phosphorylase (Sigma N8264) and 200 uM of the non-varied substrate.” left out, “reader.” for “reader. The Michaelis-Menten kinetics protocol of the Spectramax software was customized for the substrate concentrations used. The software returns values of KM and Vmax using the Lineweaver-Burke transformation of the Michaelis-Menten equation. To determine kcat, Vmax (uM/min) was divided by the enzyme concentration (uM).”
as §3, §4

Substitutions are numbered along the chain they refer to. In names and notes the source's numbering stands.

B1: Zea mays EPSPS variant 868-H6 (A2R, A4W, A72Q, K84R, L98C, G102A, I208L, T279A, E302S, T361S, E391G, D402G, A416G, V438R, T441Q), SEQ ID NO:5 (Zea mays; … (protein)
chain: MRGWEEIVLQPIKEISGTVKLPGSKSLSNRILLLAALSEGTTVVDNLLNSEDVHYMLGALRTLGLSVEADKQAKRAVVVGCGGRFPVEDAKEEVQLFCGNAATAMRPLTAAVTAAGGNATYVLDGVPRMRERPIGDLVVGLKQLGADVDCFLGTDCPPVRVNGIGGLPGGKVKLSGSISSQYLSALLMAAPLALGDVEIEIIDKLISLPYVEMTLRLMERFGVKAEHSDSWDRFYIKGGQKYKSPKNAYVEGDASSASYFLAGAAITGGTVTVEGCGTASLQGDVKFAEVLEMMGAKVTWTSTSVTVTGPPREPFGRKHLKAIDVNMNKMPDVAMTLAVVALFADGPTAIRDVASWRVKESERMVAIRTELTKLGASVEEGPDYCIITPPGKLNVTAIDTYGDHRMAMAFSLAACGEVPVTIRDPGCTRKTFPDYFDRLSQFVKN
Turning to B1, in series [1], the Km was determined as 24.0 µM, the kcat is 6.43 s⁻¹ and the kcat/Km was determined as 268000 M⁻¹ s⁻¹.

B2: Sorghum halepense EPSPS with 868-H6 mutations, SEQ ID NO:12 (Sorghum halepense; … (protein)
chain: B1 chain with M1A, R61N, V161I, E313Q
On to B2, for which, in series [2], the Michaelis-Menten constant (Km) was found to be 30.6 µM, the kcat is 5.28 s⁻¹ and the kcat/Km was determined as 167000 M⁻¹ s⁻¹.

B3: Zea mays EPSPS variant 771-C2 (A4W, H54M, L98C, G102A, K173R, I208L, K243E, E302S, T361S, E391P, D402G, A416G, V438R, S440R, T441Q, F442V), SEQ ID NO:4 (Zea … (protein)
chain: B1 chain with R2A, H54M, Q72A, R84K, K173R, K243E, A279T, G391P, S440R, F442V
Take B3: in [3], the Km is 21.0 µM, the kcat came to 5.8 s⁻¹ and the catalytic efficiency (kcat/Km) amounted to 275000 M⁻¹ s⁻¹.

B4: Zea mays EPSPS variant 123-C1 (A2R, A4W, K84R, L98C, G102A, I208L, K243E, E391P, D402G), SEQ ID NO:6 (Zea mays; A1R/A3W/D401G/E390P/G101A/I207L/K242E/K83R/L97C) (protein)
chain: B1 chain with Q72A, K243E, A279T, S302E, S361T, G391P, G416A, R438V, Q441T
As for B4, in series [4], the Km worked out at 24.2 µM, the kcat is 7.3 s⁻¹ and the kcat/Km came to 302000 M⁻¹ s⁻¹.

B5: Sorghum halepense EPSPS, native, SEQ ID NO:8 (Sorghum halepense) (protein)
chain: AAGAEEIVLQPIKEISGTVKLPGSKSLSNRILLLAALSEGTTVVDNLLNSEDVHYMLGALNTLGLSVEADKVAKRAVVVGCGGKFPVEDAKEEVQLFLGNAGTAMRPLTAAVTAAGGNATYVLDGVPRMRERPIGDLVVGLKQLGADVDCFLGTDCPPVRINGIGGLPGGKVKLSGSISSQYLSALLMAAPLALGDVEIEIIDKLISIPYVEMTLRLMERFGVKAEHSDSWDRFYIKGGQKYKSPKNAYVEGDASSASYFLAGAAITGGTVTVEGCGTTSLQGDVKFAEVLEMMGAKVTWTETSVTVTGPPRQPFGRKHLKAIDVNMNKMPDVAMTLAVVALFADGPTAIRDVASWRVKETERMVAIRTELTKLGASVEEGPDYCIITPPEKLNVTAIDTYDDHRMAMAFSLAACAEVPVTIRDPGCTRKTFPDYFDVLSTFVKN
As for B5, in series [5], the Km was found to be 17.4 µM, the kcat was 50.9 s⁻¹ and the kcat/Km was determined as 2.93e+06 M⁻¹ s⁻¹.

B6: Zea mays EPSPS variant Zm-A189T (Zea mays; A188T) (protein)
chain: B5 chain with A1M, N61R, V72A, I161V, A189T, Q313E
Take B6: in series [6], the Km turned out to be 307 µM and the kcat came to 4.3 s⁻¹.

B7: Zea mays EPSPS variant Zm-T103A (Zea mays; T102A) (protein)
chain: B5 chain with A1M, N61R, V72A, T103A, I161V, Q313E
notes: native maize plus T103A; E. coli BL21(DE3), Ni-NTA purified
In the case of B7, in series [7], the Km worked out at 292 µM and the kcat was determined as 7.52 s⁻¹.

B8: Oryza sativa EPSPS with 868-H6 mutations, SEQ ID NO:11 (Oryza sativa; A482G/A67R/A69W/D368S/D468G/E457G/G168A/I274L/K149R/L164C/T345A/T427S/T507Q/V137Q/V504R) (protein)
chain: APARKWEEIVLQPIREISGAVQLPGSKSLSNRILLLSALSEGTTVVDNLLNSEDVHYMLEALKALGLSVEADKQAKRAVVVGCGGRFPVEKDAKEEVQLFCGNAATAMRPLTAAVTAAGGNATYVLDGVPRMRERPIGDLVVGLKQLGADVDCFLGTECPPVRVKGIGGLPGGKVKLSGSISSQYLSALLMAAPLALGDVEIEIIDKLISLPYVEMTLRLMERFGVKAEHSDSWDRFYIKGGQKYKSPGNAYVEGDASSASYFLAGAAITGGTVTVQGCGTASLQGDVKFAEVLEMMGAKVTWTSTSVTVTGPPREPYGKKHLKAVDVNMNKMPDVAMTLAVVALFADGPTAIRDVASWRVKESERMVAIRTELTKLGASVEEGPDYCIITPPGKLNITAIDTYGDHRMAMAFSLAACGDVPVTIRDPGCTRKTFPNYFDRLSQFVRN
On to B8, for which, in [8], the Km was 28.9 µM, the catalytic constant (kcat) amounted to 4.88 s⁻¹ and the kcat/Km is 167000 M⁻¹ s⁻¹.

B9: Helianthus annuus EPSPS with 868-H6 mutations, SEQ ID NO:10 (Helianthus annuus; … (protein)
chain: ATTRKWSTAPEEIVLKPIKEISGTVNLPGSKSLSNRILLLAALAEGTTVVDNLLNSDDVHYMLGALRALGLNVEENGQIKRATVEGCGGRFPVGKEAKDEIQLFCGNAATAMRPLTAAVTAAGGNSSYILDGVPRMRERPIGDLVTGLKQLGADVDCFLGTNCPPVRVAANGGLPGGKVKLSGSISSQYLTALLMAAPLALGDVEIEIIDKLISLPYVEMTLKLMERFGVSVEHSDSWDKFYVRGGQKYKSPGNAYVEGDASSASYFLAGAAITGGTVTVEGCGTASLQGDVKFAEVLGQMGAEVTWTSNSVTVRGPPRNASGRGHLRPVDVNMNKMPDVAMTLAVVALYADGPTAIRDVASWRVKESERMIAICTELRKLGATVEEGPDYCVITPPGKLNVTAIDTYGDHRMAMAFSLAACGDVPVTIKDPGCTRKTFPDYFERLEQFTKH
With B9, in [9], the Km amounted to 37.2 µM, the kcat is 3.52 s⁻¹ and the specificity constant (kcat/Km) worked out at 100000 M⁻¹ s⁻¹.

For orientation: Km means the concentration of substrate that gives half-maximal velocity. One may read the kcat as the number of substrate molecules converted per active site and unit of time at saturation. The term kcat/Km denotes the second-order rate constant that governs catalysis at low substrate concentration.

The record behind these values is patent publication US11549123B2, “Plant EPSP synthases and methods of use” (PIONEER HI-BRED INTERNATIONAL, INC., priority 2015, dated 2023).
